Changes are numbered by the printed parent chain. Names and notes keep the numbering of the source.
B1: YW629.51 (antibody, human IgG1, V domains shown)
VH: EVQLVESGGGLVQPGGSLRLSCAASGFTFSSYAMHWVRQAPGKGLEWVSRISSNGGSTYYADSVKGRFTISRDNSKNTLYLQMNSLRAEDTAVYYCARWIPQSYPFASYKSGFDYWGQGTLVTVSS
VL: DIQMTQSPSSLSASVGDRVTITCRASQGISSYLAWYQQKPGKAPKLLIYDASSLESGVPSRFSGSGSGTDFTLTISSLQPEDFATYYCQQYYSYPFTFGQGTKVEIKR
notes: also called P6C.51; bivalent LRP5 antibody (P6C.51)
B2: YW629.51.61 (antibody, human IgG1, V domains shown)
VH: B1 VH
VL: B1 VL with G28V, I29M, S30G, S31Y
notes: also called P6C.51.61; PC6.51.61
B3: YW629.42 (antibody, human IgG1, V domains shown)
VH: EVQLVESGGGLVQPGGSLRLSCAASGFTFSSYAMSWVRQAPGKGLEWVGAISSSGSSTYYADSVKGRFTISRDNSKNTLYLQMNSLRAEDTAVYYCARYYRYAPYRSLGMDVWGQGTLVTVSS
VL: B1 VL with D50A, E55Q
notes: also called P6C.42
B4: YW629.51.78 (antibody, human IgG1, V domains shown)
VH: B1 VH
VL: B1 VL with S30F, S31Y, S53T
notes: also called P6C.51.78
B5: YW629.42.65 (antibody, human IgG1, V domains shown)
VH: B3 VH with A50G, S54P
VL: B1 VL with D50A, E55Q, S93L
notes: also called P6C.42.65
B6: YW629.51.63 (antibody, human IgG1, V domains shown)
VH: B1 VH
VL: B1 VL with G28S, S30Y, S31Y
notes: also called P6C.51.63
B7: YW629.51.80 (antibody, human IgG1, V domains shown)
VH: B1 VH
VL: B1 VL with G28A, S30Y
notes: also called P6C.51.80
B8: YW629.51.13 (antibody, human IgG1, V domains shown)
VH: B1 VH with A107R
VL: B1 VL
notes: also called P6C.51.13
B9: YW629.42.58 (antibody, human IgG1, V domains shown)
VH: B3 VH with S54P, S56W
VL: B1 VL with D50A, E55Q
notes: also called P6C.42.58
B10: YW629.42.57 (antibody, human IgG1, V domains shown)
VH: B3 VH with S53A, S54P
VL: B1 VL with D50A, E55Q
notes: also called P6C.42.57
B11: YW629.51.77 (antibody, human IgG1, V domains shown)
VH: B1 VH
VL: B1 VL with G28V, S30Y, S31G, S53T, L54R
notes: also called P6C.51.77

The binders below were run against LRP5 (transfected into reporter cells) (assay: cell-based or functional assay).
With B1 the “TOPFlash luciferase reporter, recombinant Norrin (cells transfected with LRP5 and FZD-4)” value was over 2 fold.
In the case of B2, the “TOPFlash luciferase reporter, Norrin as ligand (cells transfected with LRP5 and FZD-4)” value is reported as 3 fold and the “TOPFlash luciferase reporter, Wnt7b as ligand (cells transfected with LRP5 and FZD-4)” value is reported as 2 fold.

These binders were tested against T1, human LRP5 domains E3-E4 (E644-Q1263 of SEQ ID NO: 42) (human, UniProt O75197 644-1263) (assay: SPR, BIAcore T100, IgG captured by anti-human Fc, LRP5E3/E4 as analyte, 25 C).
T1 construct: Soluble fragment made in-house; It was biotinylated for phage sorting; also called LRP5-E3/E4; LRP5E3/E4
T1 sequence: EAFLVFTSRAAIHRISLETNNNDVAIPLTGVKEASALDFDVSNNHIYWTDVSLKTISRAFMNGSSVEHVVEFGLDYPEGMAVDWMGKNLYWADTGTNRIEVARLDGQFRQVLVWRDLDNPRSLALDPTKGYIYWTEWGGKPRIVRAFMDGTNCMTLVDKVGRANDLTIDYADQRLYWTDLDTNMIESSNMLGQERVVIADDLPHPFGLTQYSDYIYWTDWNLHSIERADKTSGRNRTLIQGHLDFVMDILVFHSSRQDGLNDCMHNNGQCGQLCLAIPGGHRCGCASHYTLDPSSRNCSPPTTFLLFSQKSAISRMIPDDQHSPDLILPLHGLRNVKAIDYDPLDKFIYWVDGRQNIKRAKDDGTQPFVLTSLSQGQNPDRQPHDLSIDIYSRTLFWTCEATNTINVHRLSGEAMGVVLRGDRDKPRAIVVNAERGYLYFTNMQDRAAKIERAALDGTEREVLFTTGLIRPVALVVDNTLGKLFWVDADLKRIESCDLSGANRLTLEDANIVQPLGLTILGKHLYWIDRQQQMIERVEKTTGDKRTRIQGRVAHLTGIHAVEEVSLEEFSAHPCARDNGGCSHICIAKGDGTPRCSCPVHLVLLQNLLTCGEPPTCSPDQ
Protocol: Binding affinities of anti-LRP5E3/E4 IgGs were measured by Surface Plasmon Resonance (SPR) using a BIAcore™-T100 instrument. Anti-LRP5E3/E4 human IgGs were captured by mouse anti-human Fc antibody (GE Healthcare, cat# BR-1008-39) coated on CM5 biosensor chips to achieve approximately 200 response units (RU). For kinetics measurements, two-fold serial dilutions ([…]) of human LRP5E3/E4 (GNE) were injected in HBS-P buffer (10 mM HEPES, pH 7.4, 0.15 M NaCl, 0.005% surfactant P20) at 25° C. with a flow rate of 30 μl/min. Association rates (kₒₙ) and dissociation rates (koff) were calculated using a simple one-to-one Langmuir binding model (BIAcore Evaluation Software version 2.0.2). The equilibrium dissociation constant (KD) was calculated as the ratio koff/kₒₙ.
For B1, the Kd was 13 nM, the koff was 0.00309 s⁻¹ and the kon was 237000 M⁻¹ s⁻¹.
B3 was tested, and the Kd was 51.6 nM, the koff was 0.00116 s⁻¹ and the kon was 22600 M⁻¹ s⁻¹.
With B4 the Kd was 0.192 nM, the koff was 7.24e-05 s⁻¹ and the kon was 378000 M⁻¹ s⁻¹.
B5 showed a Kd of 2.54 nM, a koff of 9.63e-05 s⁻¹ and a kon of 37900 M⁻¹ s⁻¹.
B6 gave a Kd of 0.592 nM, a koff of 0.000199 s⁻¹ and a kon of 337000 M⁻¹ s⁻¹.
Work on B2 yielded a Kd of 0.47 nM, a koff of 0.000115 s⁻¹ and a kon of 244000 M⁻¹ s⁻¹.
B7 gave a Kd of 0.268 nM, a koff of 0.000104 s⁻¹ and a kon of 387000 M⁻¹ s⁻¹.
B8 gave a Kd of 1.13 nM, a koff of 0.000369 s⁻¹ and a kon of 327000 M⁻¹ s⁻¹.
B9 gave a Kd of 2.78 nM, a koff of 8.69e-05 s⁻¹ and a kon of 31300 M⁻¹ s⁻¹.
Work on B10 yielded a Kd of 5.42 nM, a koff of 0.000163 s⁻¹ and a kon of 30100 M⁻¹ s⁻¹.
With B11 the Kd was 0.438 nM, the koff was 0.000165 s⁻¹ and the kon was 376000 M⁻¹ s⁻¹.
